Source: patent publication US20180037631A1 (Bristol-Myers Squibb, published 2018)

Molecular target: T1, EGFR on the surface of human tumour cells (A431, H292) (human, UniProt P00533 25-1210)
Assay: cell-based or functional assay

Row | Binder | % inhibition of EGFR phosphorylation at 100 nM binder, cell-based assay
1 | E77 (designed binder) 10Fn3 domain: MGVSDVPRDLEVVAATPTSLLISWSSATRPYQYYRITYGETGGNSPVQEFTVPGGVRTATISGLKPGVDYTITVYAVTDFFNPTTHEYYYHTTPISINYRTEIDKPSQ | 81.1%
2 | E73 (designed binder) 10Fn3 domain: MGVSDVPRDLEVVVATPTSLLISWTKLLGGYQYYRITYGETGGNSPVQEFTVPGPVYTATISGLKPGVDYTITVYAVTDFFNPRTHEYQYHTTPISINYRTEIDKPSQ | 78.8%
3 | E76 (designed binder) 10Fn3 domain: MGVSDVPRDLEVVAATPTSLLISWYSQPLTYQYYRITYGETGGNSPVQEFTVPHDVNTATISGLKPGVDYTITVYAVTDFYNPETHEYTYHLTPISINYRTEIDKPSQ | 79%
4 | E75 (designed binder) 10Fn3 domain: MGVSDVPRDLEVVAATPTSLLISWAAGRATYQYYRITYGETGGNSPVQEFTVPYDVTTATISGLKPGVDYTITVYAVTDFYNPATHEYYYETTPISINYRTEIDKPSQ | 76.5%
5 | E74 (designed binder) 10Fn3 domain: MGVSDVPRDLEVVAATPTSLLISWRASGGLYQYYRITYGETGGNSPVQEFTVPGSVNTATISGLKPGVDYTITVYAVTDFYNPATYEYIYHTTPISINYRTEIDKPSQ | 80.9%

Second part, the binder after the results:

Row | % inhibition of EGFR phosphorylation at 100 nM binder, cell-based assay | Binder
6 | 76.9% | E78 (designed binder) 10Fn3 domain: MGVSDVPRDLEVVAATPTSLLISWSVERSVYQYYRITYGETGGNSPVQEFTVPGGVRTATISGLKPGVDYTITVYAVTDYYNPSTHEYNYLTTPISINYRTEIDKPSQ
7 | 89.6% | E80 (designed binder) 10Fn3 domain: MGVSDVPRDLEVVAATPTSLLISWSSSHRRYQYYRITYGETGGNSPVQEFTVPGSVATATISGLKPGVDYTITVYAVTDYFNPDTHEYLYHATPISINYRTEIDKPSQ
8 | 75.1% | E81 (designed binder) 10Fn3 domain: MGVSDVPRDLEVVAATPTSLLISWDNNSNSYQYYRITYGETGGNSPVQEFTVPYDLRTATISGLKPGVDYTITVYAVTDYKPHTEGEHTYHESPISINYRTEIDKPSQ
9 | 99.2% | E79 (designed binder) 10Fn3 domain: MGVSDVPRDLEVVAATPTSLLISWQDTSSYHQYYRITYGETGGNSPVQEFTVPGGVRTATISGLKPGVDYTITVYAVTDYFNPSTHEYIYRTIPISINYRTEIDKPSQ

Molecular target: T1, EGFR on the surface of human tumour …
Assay: cell-based or functional assay
Remark: another data set of the same source

Row | % inhibition of EGFR phosphorylation at 100 nM binder, cell-based assay | Binder
10 | 76.8% | E70 (designed binder) 10Fn3 domain: MGVSDVPRDLEVVAATPTSLLISWVSARGRYQYYRITYGETGGNSPVQEFTVPGGVRTATISGLKPGVDYTITVYAVTDYYNLETYEYHYYRTPISINYRTEIDKPSQ
11 | 82.8% | E72 (designed binder) 10Fn3 domain: MGVSDVPRDLEVVAATPTSLLISWSATRTLYQYYRITYGETGGNSPVQEFTVPYDVHTATISGLKPGVDYTITVYAVTDYYNMVTYEYNYHLTPISINYRTEIDKPSQ
12 | 85.1% | E69 (designed binder) 10Fn3 domain: MGVSDVPRDLEVVAATPTSLLISWHAGMAVYQYYRITYGETGGNSPVQEFTVPGDVLTATISGLKPGVDYTITVYAVTDFFNPVTHEYMYHTIPISINYRTEIDKPSQ
13 | 80.4% | E71 (designed binder) 10Fn3 domain: MGVSDVPRDLEVVAATPTSLLISWWFGTSSYQYYRITYGETGGNSPVQEFTVPGDLKTATISGLKPGVDYTITVYAVTDYFNPVTHEYEYHTTPISINYRTEIDKPSQ
